According to the supplement of paper PMC10126150:
± gives the standard deviation of the averaged measurements.

Tested on: ATP
Experiment: switch fluorescence ratio, 500 uM ATP over buffer (Cy3 cluster intensity, sum of 5 cycles each) (fold (ratio)); higher = stronger signal-on switching upon ATP binding; sequences stand for … in TCGTCGGCAGCGTCAGATGTGTATAAGAGACAGTTTTTTTTTTTTTTTTTTTTTTTTT…TC
Conditions: aptamer strand: ATP DNA aptamer (quencher-CACCTGGGGGAGTATTGCGGAGGAAGG + anchor), 100 nM annealed; ATP concentration: 500 uM
In short: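 Imaging in selection buffer was followed by imaging after 15 min with 500 uM ATP at 22 °C, for Cy3-labelled switching-strand clusters annealed to 100 nM quencher-labelled ATP aptamer on a modified Illumina MiSeq flow-cell. Five of these buffer/ATP cycles ran, separated by NaOH stripping and re-annealing. The fluorescence ratio per cluster is summed target-cycle over summed buffer-cycle Cy3 intensity, averaged per switch-domain sequence; clusters outside 100-1000 RFU were removed.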
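Further: ATP exposure 15 min at 22 °C before imaging.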

| Sequence | switch fluorescence ratio |
| --- | --- |
| ATGATCCCCG | 1.05 ± 0.025 |
| ATGATCGCGT | 1.01 ± 0.024 |
| ATGATCTAGT | 1.03 ± 0.064 |
| ATGATCTCCG | 1.32 ± 0.017 |
| ATGATGAAGA | 1.02 ± 0.019 |
| ATGATGAAGT | 1.02 ± 0.017 |
| ATGATGGGGT | 1.01 ± 0.06 |
| ATGATGTGAG | 1.01 ± 0.051 |
| ATGATTATAT | 0.99 ± 0.017 |
| ATGATTCAGC | 1.03 ± 0.083 |
| ATGATTCTGT | 1 ± 0.021 |
| ATGATTGCAC | 1.01 ± 0.057 |
| ATGATTGTCG | 0.994 ± 0.017 |
| ATGATTTGGC | 1.04 ± 0.048 |
| ATGATTTTAG | 1 ± 0.031 |
| ATGATTTTGG | 0.992 ± 0.023 |
| ATGCAATTTT | 1.017 ± 0.0034 |
| ATGCACACTC | 1.225 ± 0.0043 |
| ATGCAGAGAG | 1.01 ± 0.031 |
| ATGCAGAGTA | 1.01 ± 0.018 |
| ATGCAGCAT | 1.06 ± 0.036 |
| ATGCAGGGTT | 0.978 ± 0.053 |
| ATGCAGTGTG | 1.02 ± 0.019 |
| ATGCATACTG | 1.03 ± 0.022 |
| ATGCATATCG | 1 ± 0.036 |
| ATGCATGGGA | 0.987 ± 0.02 |

| Sequence | switch fluorescence ratio |
| --- | --- |
| ATGCATTGTT | 1 ± 0.027 |
| ATGCCAGCGC | 1.02 ± 0.025 |
| ATGCCGATCG | 1.05 ± 0.021 |
| ATGCCGGGAT | 1.02 ± 0.02 |
| ATGCCGGGGC | 1.02 ± 0.037 |
| ATGCCTGTGT | 0.977 ± 0.012 |
| ATGCGAAGAT | 1.01 ± 0.011 |
| ATGCGCAAGG | 1.25 ± 0.033 |
| ATGCGCAGAA | 1.01 ± 0.034 |
| ATGCGCGCCG | 0.982 ± 0.037 |
| ATGCGGCTG | 1.04 ± 0.11 |
| ATGCGGTAGG | 1.01 ± 0.016 |
| ATGCGTGGTA | 1.02 ± 0.041 |
| ATGCGTTTTG | 1.01 ± 0.017 |
| ATGCTAAGCT | 1.013 ± 0.0096 |
| ATGCTAATTT | 0.9666 ± 0.0015 |
| ATGCTACCAT | 1.05 ± 0.022 |
| ATGCTATGTG | 0.9752 ± 0.0055 |
| ATGCTTCGTG | 0.975 ± 0.027 |
| ATGCTTTTTT | 0.994 ± 0.017 |
| ATGGAAAGGT | 1.009 ± 0.0074 |
| ATGGAAAGTG | 0.9599 ± 0.0071 |
| ATGGAAGCTA | 1.02 ± 0.013 |
| ATGGAAGGCG | 1.01 ± 0.036 |
| ATGGAATGAG | 0.998 ± 0.012 |
| ATGGAGGGTG | 1.04 ± 0.031 |

| Sequence | switch fluorescence ratio |
| --- | --- |
| ATGGAGTGG | 1 ± 0.049 |
| ATGGATAAGG | 1.01 ± 0.024 |
| ATGGATATTA | 1.03 ± 0.046 |
| ATGGATGAGA | 0.989 ± 0.03 |
| ATGGATGGAG | 0.99 ± 0.013 |
| ATGGCAATTC | 2.51 ± 0.068 |
| ATGGCAGGG | 1.016 ± 0.0061 |
| ATGGCCTCGG | 1.02 ± 0.025 |
| ATGGCGAATT | 0.995 ± 0.073 |
| ATGGCGGGGA | 0.984 ± 0.052 |
| ATGGCTAGAA | 0.985 ± 0.026 |
| ATGGCTATTT | 0.9852 ± 0.0086 |
| ATGGCTGGCT | 1.04 ± 0.041 |
| ATGGCTGTTT | 0.972 ± 0.0012 |
| ATGGCTTAAG | 1.006 ± 0.0055 |
| ATGGGAAGGG | 1.01 ± 0.015 |
| ATGGGAGGTC | 0.97 ± 0.0071 |
| ATGGGATAAG | 0.998 ± 0.029 |
| ATGGGCGCAG | 0.99 ± 0.05 |
| ATGGGCGCGG | 0.9903 ± 0.0066 |
| ATGGGCGGCG | 0.993 ± 0.021 |
| ATGGGCTAGG | 0.9702 ± 0.0058 |
| ATGGGCTATT | 0.994 ± 0.038 |
| ATGGGGAAGC | 1.03 ± 0.058 |
| ATGGGGAGGT | 0.968 ± 0.025 |
